Changes are numbered by the printed parent chain.
B1: flaB mutant F6 (E122, Glu to Ala) (natural protein)
chain: MAINVSTNVSAMTAQRYLNNAADGTQKSMERLSSGYKINSARDDAAGLQISNRLTSQSRGLDMAVRNANDGISIAQTAEGAMNETTNILQRMRDLSLQSANGSNSSSERQAIQEEVSALNDALNRIAETTSFGGNKLLNGSFGNKSFQIGADSGEAVMLSMSDMRSDTKAMGGKSYVATNGKAPDWSVTNATDLTLSYTDKQGEAREVTINAKAGDDLEEVATYINGQNGDIKASVGDEGKLQLFAANQKVSSDVTIGGGLGTEIGFAAGKDVTVKDINVTTVGGSQEAVALIDGALKAVDSQRASLGAFQNRFGHAISNLDNINENVNASRSRIKDTDYARETTQMTKSQILQQASTSVLAQAKQSPSAALSLLG
B2: flaB mutant F4 (R91, Arg to Ala) (natural protein)
chain: B1 chain with R91A, A122E
B3: flaB mutant F9 (R313, Arg to Ala) (natural protein)
chain: B1 chain with A122E, R313A
B4: flaB mutant F8 (N312, Asn to Ala) (natural protein)
chain: B1 chain with A122E, N312A
B5: flaB mutant F5 (D94, Asp to Ala) (natural protein)
chain: B1 chain with D94A, A122E
B6: flaB mutant F12 (L97, Leu to Asn) (natural protein)
chain: B1 chain with L97N, A122E
B7: flaB mutant F11 (N320, Asn to Ala) (natural protein)
chain: B1 chain with A122E, N320A
B8: flaB mutant F7 (D152, Asp to Ala) (natural protein)
chain: B1 chain with A122E, D152A
B9: flaB mutant F2 (N83, Asn to Ala) (natural protein)
chain: B1 chain with N83A, A122E
B10: flaB mutant F13 (H316, His to Ala) (natural protein)
chain: B1 chain with A122E, H316A
B11: flaB mutant F3 (N87, Asn to Ala) (natural protein)
chain: B1 chain with N87A, A122E
B12: flaB mutant F14 (I324, Ile to Asn) (natural protein)
chain: B1 chain with A122E, I324N
B13: flaB mutant F1 (Q57, Gln to Ala) (natural protein)
chain: B1 chain with Q57A, A122E

biological target: TLR5 protein from pGEX-6p-1 (GST-His*10-TEV-TLR5, digested with TEV protease), used for SPR (silvery pomfret (Pampus argenteus)); assay: SPR; BIAcore S200; TLR5 immobilised on an SA sensor chip; flaB proteins injected at 30 uL/min in PBS-P, 25°C; 1:1 Langmuir fit

“flagellin B (flaB) from Vibrio anguillarum, wild type, recombinant (from UniProt Q56572 1-376) (natural protein)” and B1 are within 1.5-fold of each other in Kd: 3.28 µM for the first, 4.4 µM for the second.

Compared with B2, B3 is 5.8-fold higher in Kd: 2.57 µM for the first, 14.8 µM for the second. The first binds more tightly here.

First: B4
Second: B5
The Kd of the first is 12-fold lower: 3.8 µM for the first, 46.3 µM for the second.

Going from B6 to B7, the Kd rises from 2.41 µM to 13 µM (5.4-fold). The first binds more tightly here.

Compared with B8, B9 is 160-fold lower in Kd: 71.7 µM for the first, 0.447 µM for the second. The second binds more tightly here.

Compared with B10, B11 is 3.6-fold higher in Kd: 7.29 µM for the first, 26.2 µM for the second. The first binds more tightly here.

First: B12
Second: B13
The Kd of the first is 64-fold higher: 27.5 µM for the first, 0.431 µM for the second. The second binds more tightly here.

Reference: PMC8667730
